Assay results taken from patent US20230159653A1.
Changes are numbered by the printed parent chain.

B1: D5.P2.B3 (Fab, V domains shown)
VH: QVQLQQSGAEVKKPGASVKVSCKASGYTFTGYYMHWVRQAPGQGLEWMGWINGNSGGTNYAQKFQGRVTMTRDTSISTAYMELSRLKSDNTAVYYCASSGSMDVWGQGTLVTVSS
VL: QSVVTQPPSVSGAPGQRVTISCSGSSSNVGRNLVYWYQQLPGAAPRLLIYRNNQRPSGVPDRFSGSKSGTSASLAISGLRSEDEADYYCAAWDDSLSGVVFGGGTKLTVLG
B2: D5.P1.A4 (Fab, V domains shown)
VH: B1 VH with N54K, N90D, S98R, S99L, G100D, S101R, M102R, V104Y
VL: B1 VL

Target: ADAM17 (UniProt P78536)
Assay: BLI (Octet Red96, 25 C), antibody captured on anti-human Fab-CH1 (FAB2G) biosensor, antigen in solution

| Binder | Kd [nM] | koff [s⁻¹] | kon [M⁻¹ s⁻¹] |
| --- | --- | --- | --- |
| B1 | 4.9 | 0.0012 | 240000 |
| B2 | 5.3 | 0.0023 | 430000 |
